Reference: publication PMC5900763, “Granule-stored MUC5B mucins are packed by the non-covalent formation of N-terminal head-to-head tetramers” (The Journal of Biological Chemistry, 2018)

Assays:
[1] = target: the molecule itself; experiment: SEC; Superose 6 3.2/300, 50 mM MES pH 6.2, 150 mM NaCl, 4 mM CaCl2, 0 h incubation, room temperature; covalent dimers to tetramer
[2] = target: the molecule itself; experiment: SEC; Superose 6 3.2/300, 50 mM MES pH 6.2, 150 mM NaCl, no Ca2+

B1: MUC5B N-terminal part (MUC5B-N), recombinant covalent dimer (domain or fragment, human, UniProt Q9HC84 26-1304, looked up)
chain: QGPVEPSWENAGHTMDGGAPTSSPTRRVSFVPPVTVFPSLSPLNPAHNGRVCSTWGDFHYKTFDGDVFRFPGLCNYVFSEHCRAAYEDFNVQLRRGLVGSRPVVTRVVIKAQGLVLEASNGSVLINGQREELPYSRTGLLVEQSGDYIKVSIRLVLTFLWNGEDSALLELDPKYANQTCGLCGDFNGLPAFNEFYAHNARLTPLQFGNLQKLDGPTEQCPDPLPLPAGNCTDEEGICHRTLLGPAFAECHALVDSTAYLAACAQDLCRCPTCPCATFVEYSRQCAHAGGQPRNWRCPELCPRTCPLNMQHQECGSPCTDTCSNPQRAQLCEDHCVDGCFCPPGTVLDDITHSGCLPLGQCPCTHGGRTYSPGTSFNTTCSSCTCSGGLWQCQDLPCPGTCSVQGGAHISTYDEKLYDLHGDCSYVLSKKCADSSFTVLAELRKCGLTDNENCLKAVTLSLDGGDTAIRVQADGGVFLNSIYTQLPLSAANITLFTPSSFFIVVQTGLGLQLLVQLVPLMQVFVRLDPAHQGQMCGLCGNFNQNQADDFTALSGVVEATGAAFANTWKAQAACANARNSFEDPCSLSVENENYARHWCSRLTDPNSAFSRCHSIINPKPFHSNCMFDTCNCERSEDCLCAALSSYVHACAAKGVQLSDWRDGVCTKYMQNCPKSQRYAYVVDACQPTCRGLSEADVTCSVSFVPVDGCTCPAGTFLNDAGACVPAQECPCYAHGTVLAPGEVVHDEGAVCSCTGGKLSCLGASLQKSTGCAAPMVYLDCSNSSAGTPGAECLRSCHTLDVGCFSTHCVSGCVCPPGLVSDGSGGCIAEEDCPCVHNEATYKPGETIRVDCNTCTCRNRRWECSHRLCLGTCVAYGDGHFITFDGDRYSFEGSCEYILAQDYCGDNTTHGTFRIVTENIPCGTTGTTCSKAIKLFVESYELILQEGTFKAVARGPGGDPPYKIRYMGIFLVIETHGMAVSWDRKTSVFIRLHQDYKGRVCGLCGNFDDNAINDFATRSRSVVGDALEFGNSWKLSPSCPDALAPKDPCTANPFRKSWAQKQCSILHGPTFAACRSQVDSTKYYEACVNDACACDSGGDCECFCTAVAAYAQACHDAGLCVSWRTPDTCPLFCDFYNPHGGCEWHYQPCGAPCLKTCRNPSGHCLVDLPGLEGCYPKCPPSQPFFNEDQMKCVAQCGCYDKDGNYYDVGARVPTAENCQSCNCTPSGIQCAHSLEACTCTYEDRTYSYQDVIYNTTDGLGACLIAICGSNGTIIRKAVACPG
notes: MUC5B mucin, human, N-terminal part with the von Willebrand D1, D2, D' and D3 domains, residues 26-1304 of GenBank NM_002458; Disulfide-bonded (covalent) dimer through D3; Two such dimers form the non-covalent tetramer (Dx2) at pH 6.2 with Ca2+; also called MUC5B N-terminal covalent dimer; MUC5B N terminus; not shown: His6, N-terminal, kept
[1]
  stoichiometry N: 4
[2]
  stoichiometry N: 2
